Data set [1] concerns the molecule itself. The data set can be described thus: native PAGE, self-association (homodimer). From the text: (§1) FIG. 9A-FIG. 9C: Quaternary structure characterization of smURFP and TDsmURFP. (A) Native PAGE gel of APCαFPs. Monomeric IFP1.4 (36.5 kD) was ran as a reference. R4-1 runs as a tetramer, while R10-10 and smURFP run as a homodimer (32 kD). (B) Native PAGE gel of TDsmURFP. Monomeric IFP1.4 (36.5 kD) and tandem dimer Tomato (tdTomato, 54.2 kD) were ran as references. TDsmURFP (32.9 kD) runs slightly higher than smURFP due to 23 amino acid linker. (C) SDS denaturing PAGE gel of smURFP and TDsmURFP. BV was imaged by addition of zinc. All FPs show correct MW and covalently attached BV. […] (A-C) Each FP was run on two lanes. EX is excitation maximum and EM is emission maximum.
(§2) smURFP ran as a 32-kD homodimer on a native gel. R10-10 ran as a32-kD homodimer, while R4-1 was atetramer (FIG. 9a). Tandem dimer smURFP (TDsmURFP) was created by adding a 23-amino-acid linker between subunits and had ˜70% fluorescence of smURFP in bacteria (FIG. 2c). TDsmURFP (33 kD) ran near smURFP. tdTomato (54 kD) and IFP1.4 (37 kD) confirmed the dimeric nature of smURFP (FIG. 9a,b). To confirm covalent BV attachment, the FPs were run on a denaturing gel, and BV was detected with zinc²⁵. […] C52 is evolutionarily conserved among all APCαs and covalently attaches PCB (FIGS. 6 and 10a). The C52S mutation eliminated smURFP fluorescence (FIG. 10b,c), and C52 remains the BV attachment site. […]

Data set [2] concerns the molecule itself. The experiment in a line: stoichiometry column of the table of biophysical properties (self-association).
Data set [3] deals with the molecule itself. The data set can be described thus: native PAGE, self-association (tetramer).
From the text: as §1, §2

Where a chain is given by its changes, count along the chain named.

B1: R10-10 (other)
chain: MKTCEQRVNIATLLTENKKKIVDKASQDLWRRHPDLIAPGGIAFSQRDRALCLRDYGWYLHLITFCLLAGDKGPIESIGLIGIREMYNSLGVPVPAMMESIRCLKEASLSLLDEEDANETAPYFDYIIKAMS
modifications: biliverdin (BV) covalently attached
notes: Evolved APCα fluorescent protein of round 10; runs as a homodimer on native PAGE; also called R10-10+BV; not shown: polyhistidine tag on the C terminus
As to B1, in data set [1], the binding result is reported as “binds”.

B2: smURFP + BVMe2 (other)
chain: B1 chain with C4S, Y59F, G82S
modifications: biliverdin dimethyl ester (BVMe2) attached, a single BVMe2 per homodimer
notes: smURFP purified without chromophore, BVMe2 added in vitro; detected by mass spectrometry as the homodimer + BVMe2; also called smURFP+1BVMe2; not shown: polyhistidine tag on the C terminus
For the protein B2, the binding result in data set [2] was “binds”.

B3: small ultra-red fluorescent protein (smURFP) + BV (other)
chain: B1 chain with C4S, Y59F, G82S
modifications: biliverdin (BV) covalently attached at C52; predominant species has one BV per homodimer
notes: purified from E. coli co-expressing HO-1; runs as a homodimer on native PAGE; not shown: polyhistidine tag on the C terminus
B3: the binding result in data set [2] is reported as “binds”.

B4: R4-1 (other)
chain: MKTGEQRVKIATLLSENEKKIVDKASQDLWRRRPDFIAPGGIAFSQRERALCLRDYRWYLHLITFCLLAGDKDPIESIGLIGIREMYNSLGVPVPGMMESIRCLKEASLSLLDEEDAKETAPYFDYIIKAMS
modifications: biliverdin (BV) covalently attached
notes: Evolved APCα fluorescent protein of round 4; runs as a tetramer on native PAGE; also called R4-1+BV; not shown: polyhistidine tag on the C terminus
In the case of B4, the binding result in data set [3] is “binds”.

The record behind these values is patent US20180201655A1 (University of California, published 2018).
